Test: yeast display, Sf9 membrane polyspecificity reagent, FACS + sequencing; frameworks hold sequencing errors
Outline: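 Genes from sorted yeast were amplified by colony PCR, read by MiSeq 2 × 250 sequencing and filtered on CDR length. These cells carried a synthetic nanobody library in Saccharomyces cerevisiae BJ5465 and were sorted by FACS into low and high (top ~1%) gates on anti-HA and streptavidin fluorescence. Polyreactivity is labelled according to the gate of origin.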

Sequence	polyreactivity (PSR sort gate)
QVQLVESGGGLVQAGGSLRLSCAASGIIFYYNTMGWYRQAPGKERELVAAISQRGGSTYYADSVKGRFTISRDNAKNTVYLQMNSLKPEDTAVYYCNKLRNSHGFRYDYWGQGTQVTVSS	high polyreactivity
QVQLVESGGGLVQAGGSLRLSCAASGIIFYYYAMGWYRQAPGKERELVAAINWTGGDTYYADSVKGRFTISRDNAKNTVYLQMNSLKPEDTAVYYCNADSFYSYIYDYWGQGTQVTVSS	low polyreactivity
QVQLVESGGGLVQAGGSLRLSCAASGIIFYYYAMGWYRQAPGKERELVAAISKSGGSTYYADSVKGRFTISRDNAKNTVYLQMNRLKPEDTAVYYCAARGPSWLSYNYWGQGTQVTVSS	high polyreactivity
QVQLVESGGGLVQAGGSLRLSCAASGIIFYYYAMGWYRQAPGKERELVAAISWSGGSTYYADSVKGRFTISRDNAKNTVYLQMNSLKPEDTAVYYCAADYTGHIYYYWGQGTQVTVSS	low polyreactivity
QVQLVESGGGLVQAGGSLRLSCAASGIIFYYYAMGWYRQAPGKERELVASISRSGTDTYYADSVKGRFTISRDTAKNTVYLQMNSLKPEDTAVYYCAARGYYRWAAYADWRFNYWGQGTQVTVSS	high polyreactivity
QVQLVESGGGLVQAGGSLRLSCAASGIIFYYYAMGWYRQAPGKESELVADITYSGGSTYYADSVKGRFTISRDKAKNTVYLQMNSLKPEDTAVYYCAARVTVSHWPYYYDSSDYGGQGTQVTVSS	low polyreactivity
QVQLVESGGGLVQAGGSLRLSCAASGIIFYYYTMGWYRQAPGKETELVASITWSGGGSTYYADSVKGRFTISRDNAKNTVYLQMNSLKPEDTAVYYCNADEYYSYDYWGQGTQVTVSS	low polyreactivity
QVQLVESGGGLVQAGGSLRLSCAASGIIFYYYVLGWYRQAPGKERELVAAISARGGSTTYADSVKGRFTISRDNAKNTVYLQMISLKPEDTAVYYCAADVSYWRHGYQLSYDYWGQVTQVTVSS	high polyreactivity
QVQLVESGGGLVQAGGSLRLSCAASGIIIAYYAMGWYRQAPGKERVLVATISSGGRTKYADSVKGRFTISRDNAKNTVYLQMNSLKPEDTAVYYCNTDRYFRRYYWYDYWGQGTQVTVSS	high polyreactivity
QVQLVESGGGLVQAGGSLRLSCAASGIIIDNYTMGWYRQAPGKEREFVAAINKSGGSTYADSVKGRFTISRDNAKNTVYLQMNSLKPEDTAVYYCAAEVDYSYWPEYARKYYYWGQGTQVTVSS	low polyreactivity
QVQLVESGGGLVQAGGSLRLSCAASGIIIDRYAMGWYRQAPGKERELVAAISWSGGRTYYADSVKGRFTISRDNAKNTVYLQMNSLKPEDTAVYYCAAKPSVDLDYWGQGTQVTVSS	high polyreactivity
QVQLVESGGGLVQAGGSLRLSCAASGIIIRYYGMGWYRQAPGKERELVARIRWTGGSTYYADSVKGRFTISRDNAKNTVYLQMNSLKPEDTAVYYCAAAWWSYKFNRDFDYWGQGTQVTVSS	low polyreactivity
QVQLVESGGGLVQAGGSLRLSCAASGIIISINAMGWYRQAPGKERELVAAISRSGGSTNYADSVKGRFTISRDNAKNTVYLQMNSLKPVDTAVDYCATVHRYSVWSHNYWGQGTQVTVSS	high polyreactivity
QVQLVESGGGLVQAGGSLRLSCAASGIIISYYAMGWYRQAPGTERELVAAINWNGDSTHYADSVKGRFTISRDNAKNTVYLKMNSLKPEDTAVYYCAAGYTPDTRCHYGTHDMDYWGQGTQVTVSS	low polyreactivity
QVQLVESGGGLVQAGGSLRLSCAASGIIIYKYAMGWDRQAPGTERELVAAITSGGGRTYYADSVKGRFTISRDNAKNTVYLQMNSLKPEDTAVYYCAATRPATYAAYDYWGQGTQVTVSS	high polyreactivity
QVQLVESGGGLVQAGGSLRLSCAASGIILAGYGMGWYRQAPGKERELVAAINGCGGSTYYADSVKGRFTISRDNAKNTVYLQMNSLKPEDTAVYYCATDWWSGLYYYWGQGTQVTVSS	high polyreactivity
QVQLVESGGGLVQAGGSLRLSCAASGIILDPNAMGWSRQAPGKERELVAGITRSGVSTYYAESVKGRFTISRDNAKNTVYLKMNSLKPEDTAVYYCAKDRISGSKGEDDDYWGKGTQVTVSS	low polyreactivity
QVQLVESGGGLVQAGGSLRLSCAASGIILDRNAMGWYRQAPGKERELVAAINSIGGSTYYADSVKGRFTISRDTAKNTVYLQMNSLKPEDTAVYYCNVAQRYYGNFFSSRYEYWGQGTQVTVSS	low polyreactivity
QVQLVESGGGLVQAGGSLRLSCAASGIILGLNVMGWYRQAPGKERELVATITRRGGSTFYADSVKGRFTISRDNAKNTVYLQMNSLKPEDTAVYYCNAEQWIWHHLTVQGFDYWGQGTQVTVSS	high polyreactivity
QVQLVESGGGLVQAGGSLRLSCAASGIILPRYAMGWYRQAPGKERELVAAISRGGGTYYADSVKGRFTISRDNAKNTVYLQMNSLIPEDTAVYYCAAAYVFVGSSHYYWGQGTQVTVSS	high polyreactivity
QVQLVESGGGLVQAGGSLRLSCAASGIILPYYVMGLYRQAPGKERELVAAISSGGRTYYADSVKGRFTISRDNAKNTVYLQMNSLKPEDTAVYYCNAYFTGKWYDYWGQGTQVTVSS	high polyreactivity
QVQLVESGGGLVQAGGSLRLSCAASGIILRYYAMGWYRQAPGKERELVAAITRGGSTNYADSVKGRFTISRDNAKNTVYLQMNSLKPEVTAVYYCAADVVFWFSNVAWRDFGYWGQGTQVTVSS	low polyreactivity

Sequence	polyreactivity (PSR sort gate)
QVQLVESGGGLVQAGGSLRLSCAASGIILSGYAMGWYRQAPGKDRELVAAIRRGGSTYYADSVKGRFTISRDNAKNTVYLQMNSLKPEDTAVYYCNAYSSRKVKWWDDYWGQGTQVTVSS	high polyreactivity
QVQLVESGGGLVQAGGSLRLSCAASGIILSYYVMGGYRQAPGNATELVAAISLRGGTTYYADSVKGRFTISRDNANTTVYIQMNSLKPEDTAVYYCAAQRPGFGYEYDYWGQGTQVTVSS	high polyreactivity
QVQLVESGGGLVQAGGSLRLSCAASGIILVRNAMGWYRQAPGKERELVAAISKSGGRTYYADSVKGRFTISRDNAKNTVYLQMNSLKPEDTAVYYCNVLTYHDFDYWGQGSQVTVSS	high polyreactivity
QVQLVESGGGLVQAGGSLRLSCAASGIILYGYSMGWYRQAPGKERELVAAISWDGGSTYYADSVKGRFTISRDNAKNTVYLQMISLIPEDTAVYYCNALGGSEYDYWGQGTQVTVSS	low polyreactivity
QVQLVESGGGLVQAGGSLRLSCAASGIILYPNAMVWYRQAPGKERELVAGITRSGVSTYYADSVKGRFTISRDNAKNTVYLQMNSLNPEDTAVYYCAKDRIYGSKGEDDDYWGQGTQVTVSS	low polyreactivity
QVQLVESGGGLVQAGGSLRLSCAASGIILYRNVLGWYRQAPGKERELVASINRGSDSTYYADSVKGRFTISRDNEKNTVYLHMNSLKPEDTAVYYCAAVYVYGVEMDYWGQGTQVTVSS	low polyreactivity
QVQLVESGGGLVQAGGSLRLSCAASGIILYRYAMGWYRQAPGKERELVAAISRRGGSTYYADSVKGRFTISRDNAKNTVYLQMNSLKPEDTAVYYCATRSTFYSRWGEVYTYYYWGQGTQVTVSS	high polyreactivity
QVQLVESGGGLVQAGGSLRLSCAASGIISPFYAMGWYRPAPGNERELVADISTGGTTTYADSVKGRFTISRDNAKNTVYLKMNSLKPEDTAVYYCNAEVSLTYYWIVWASYDYWGQGTQVTVSS	low polyreactivity
QVQLVESGGGLVQAGGSLRLSCAASGIISRVYAMGWYRQAPGKERELVAAITRRGSTTYYADSVKGRFTISRDNAKNTVYLQMNSLKPEDTAVYYCAALARYGPRYRGDYWGQGTQVTVSS	high polyreactivity
QVQLVESGGGLVQAGGSLRLSCAASGIISYLYAMGWYRQAPGKERELVAVIRTSDAITYYADSVKGRFTISRDNAKNTVYLQMISLKPEDTAVYYCAAEDVYEYDYWGQGTQVTVSS	high polyreactivity
QVQLVESGGGLVQAGGSLRLSCAASGIISYLYAMGWYRQAPGKERELVAVIRTSDAITYYADSVKGRFTISRDNAKNTVYLQMNSLKPEDTAVYYCAAEDVYEYDYWGQGTQVTVSS	high polyreactivity
QVQLVESGGGLVQAGGSLRLSCAASGIISYLYAMGWYRQAPGKERELVAVIRTSDAITYYADSVKGRFTISRDNAKNTVYLQMNSLKPEDTAVYYCNRDRGSIYGWGQGTQVTVSS	high polyreactivity
QVQLVESGGGLVQAGGSLRLSCAASGIIVPYNAMGWYRQEPGKVRYLVSAITSGGSTYYADSVKGRFTISRDNAKNTVYLQMNSMKPEDTAVYYCAKVPLSARRNNQSWAYDYWGQGTQVTVSS	low polyreactivity
QVQLVESGGGLVQAGGSLRLSCAASGIIYAANPMGWYRQAPGKERELVAAISKNGGITYYADSVKGRFTISRDNAKNTVYLQMNSLKPEDTAVYYCAARWRQTRRYYYWGQGTQVTVSS	high polyreactivity
QVQLVESGGGLVQAGGSLRLSCAASGIIYAYYAMGWYRQAPGKERELVAAISRSGGITYYADSVKGRFTISRDNAKNTVYLQMNSLKPEDTAVYYCARYSSRPYDYWGQGTQVTVSS	high polyreactivity
QVQLVESGGGLVQAGGSLRLSCAASGILSLYTMGCSIQAPGKERELVAAISFRGGNTYYADSVKGRFTISRDNAKNTVYLQMNSLKPEDTAVYYCNAVTRPWRRGYDYWGQGTQVTVSS	high polyreactivity
QVQLVESGGGLVQAGGSLRLSCAASGIMFFYYAMGWYRQAPGKERELVAAISNSDTSTSYADSVKGRFTISRDNAKNSVYFQMNSLKPEDTAVYYCNADSPSLSGDYWGQGTQVTVSS	low polyreactivity
QVQLVESGGGLVQAGGSLRLSCAASGIMFTLYAMGWYRQAPGKERELVAAISGSGGSTYYAASVKGRFTISRDTAKKTVNLQMNSLKPEDTAVSYCRLAPRYRTGGYWGQGTQVTVSS	high polyreactivity
QVQLVESGGGLVQAGGSLRLSCAASGINFGRNAMGWYSQAPGKERELVAAITRRGGRTNYADSVKGRFTISRDNAKNTVYLQMNSLKPEDNAVYYCNAHGRPAEAGYDYWGQATQVTVSS	high polyreactivity
QVQLVESGGGLVQAGGSLRLSCAASGINFRQYTMGWFRQAPGKERELVAAITSSGRTYYADSVKGRFTISRDNAKNTVYLQMNSLKPEDTAVYYCAAKGTYRGHDYWGQGTQVTVSS	high polyreactivity
QVQLVESGGGLVQAGGSLRLSCAASGINFRYYAMGWYRQAPGKERELVARISTRGGSTYYADSVKGRFTISRDNAKNTVYLQMNSLKPEDTAVYYCAAVNGLYYHKYGYYWGQGTQVTVSS	high polyreactivity
